Molecular target: T1, 人胃蛋白酶原II HPGII (fitzgerald, 30R-AP039) (human, UniProt P20142 17-388)
T1 construct: Bought antigen; also called PGⅡ; PGC
T1 sequence (looked up): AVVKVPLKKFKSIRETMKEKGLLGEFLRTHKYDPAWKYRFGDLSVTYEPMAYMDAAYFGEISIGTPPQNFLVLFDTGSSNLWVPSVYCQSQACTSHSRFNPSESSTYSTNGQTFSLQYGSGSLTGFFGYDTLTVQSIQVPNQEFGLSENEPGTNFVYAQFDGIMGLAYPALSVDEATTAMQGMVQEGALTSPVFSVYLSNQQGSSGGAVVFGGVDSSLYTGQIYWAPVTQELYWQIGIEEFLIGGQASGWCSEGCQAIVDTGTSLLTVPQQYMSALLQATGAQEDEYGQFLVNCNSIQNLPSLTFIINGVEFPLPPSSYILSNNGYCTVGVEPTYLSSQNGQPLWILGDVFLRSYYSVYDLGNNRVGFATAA
Experiment: BLI, AMC sensor, antibody immobilised, HPGII in solution

- Kd: 5.15 nM
- koff: 0.00181 s⁻¹
- kon: 351000 M⁻¹ s⁻¹
B1: Anti-HPG II 11C2 重组抗体 (WT) (antibody, V domains shown)
VH: QIQLVQSGPELKKPGETVKISCKASGYSFTQHGMNWVKQAPGKGLKWMGWINSFTAQPTFADDFRGRFAFSLETSASTAYLQINNLKNEDMATYFCARRGENYIYYYAMDYWGQGTSVTVSS
VL: DVVVTQTPLSLPVSFGDQVSISCRSNQSIAQSYGNTYLSWYLHKPGQSPQLLIYGLSQRFSGVPDRFSGSGSGTDFTLKISTIKPEDLGMYYCLNGSHQPWTFGGGTKLEIK

From patent publication CN111217911A (DONGGUAN PENGZHI BIO TECH CO LTD, dated 2020)
